Assay [1] concerns the target T1, recombinant biotinylated CD71 extracellular domain (Sino Biologics) with an N-terminal 6His tag (human, UniProt P02786 89-760, biotinylated (sites not given)).
T1 construct: extracellular domain; also called hCD71; huCD71
The assay is described as follows: screening ELISA, ratio.

The target in assay [2] is T1, recombinant biotinylated CD71 …. The assay is described as follows: screening ELISA. On the technique in general: An ELISA detects its analyte on a solid surface through an enzyme-linked reagent.

24 molecules from patent publication US20210145976A1 (ARO BIOTHERAPEUTICS, published 2021) can be followed below.

Residue numbers refer to the chain shown, from its start.

T1 sequence (P02786 other isoform, or with tags, fused parts or gaps): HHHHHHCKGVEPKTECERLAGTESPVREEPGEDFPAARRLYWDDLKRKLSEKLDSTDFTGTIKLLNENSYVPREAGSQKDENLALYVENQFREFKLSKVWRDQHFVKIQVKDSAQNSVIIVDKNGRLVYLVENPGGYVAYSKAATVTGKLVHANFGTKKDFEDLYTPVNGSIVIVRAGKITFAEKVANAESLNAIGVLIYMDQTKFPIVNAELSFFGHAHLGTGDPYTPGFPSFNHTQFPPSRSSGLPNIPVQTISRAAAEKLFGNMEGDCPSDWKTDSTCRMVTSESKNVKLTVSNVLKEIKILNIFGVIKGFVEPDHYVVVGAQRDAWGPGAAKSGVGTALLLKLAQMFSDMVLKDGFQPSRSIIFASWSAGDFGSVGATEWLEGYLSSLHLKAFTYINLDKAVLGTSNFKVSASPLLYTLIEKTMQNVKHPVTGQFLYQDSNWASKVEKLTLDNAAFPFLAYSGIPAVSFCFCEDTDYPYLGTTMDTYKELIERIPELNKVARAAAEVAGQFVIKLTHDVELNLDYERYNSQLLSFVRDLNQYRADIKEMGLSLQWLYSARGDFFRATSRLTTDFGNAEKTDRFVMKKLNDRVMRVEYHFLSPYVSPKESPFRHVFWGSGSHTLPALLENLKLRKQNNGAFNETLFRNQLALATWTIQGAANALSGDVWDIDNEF

B1: SEQ ID NO 184 (designed binder)
chain: MLPAPKNLVVSRITEDSARLSWTAPDAAFDSFGIGYYEHKRFGEAIQLSVPGSERSYDLTGLKPGTEYEVDIEGVKGGVLSWPLFAEFTT
notes: FN3 domain
As for B1, the “hCD71:HSA” value in assay [1] was 235. For the same molecule, the hCD71 in assay [2] came to 470000.

B2: SEQ ID NO 161 (designed binder)
chain: MLPAPKNLVVSRVTEDSARLSWTAPDAAFDSFTIRYWEELPTGEAIVLTVPGSERSYDLTGLKPGTEYTVEIFGVKGGYLSRPLSAISTT
notes: FN3 domain
As to B2, the “hCD71:HSA” value in assay [1] came to 240. The hCD71 in assay [2] came to 1.21e+06.

B3: SEQ ID NO 221 (designed binder)
chain: MLPAPKNLVVSRVTEDSARLSWTAPDAAFDSFHISYQEVVAEGEAIYLRVPGSERSYDLTGLKPGTEYYVLIHGVKGGYESKPLDASFTT
notes: FN3 domain
For B3, in assay [1], the “hCD71:HSA” value was 537. Besides, in assay [2], the hCD71 came out at 1.96e+06.

B4: SEQ ID NO 172 (designed binder)
chain: MLPAPKNLVVSRVTEDSARLSWTAPDAAFDSFPIEYDEWWALGEAITLIVPASERSYDLTGLKPGTEYVVKIHGVKGGQRSYPLIAFFTT
notes: FN3 domain
Take B4: the “hCD71:HSA” value in assay [1] is 1160. Besides, the hCD71 in assay [2] was 4.31e+06.

B5: SEQ ID NO 224 (designed binder)
chain: MLLAPKNLVVSRVTEDSARLSWTAPDAAFDSFRYLEQGLYGEAIVLTVPGSERSYDLTGLKPGTEYWVEIIGVKGGEYSTPLSAIFTT
notes: FN3 domain
Turning to B5, the “hCD71:HSA” value in assay [1] is 122. Moreover, in assay [2], the hCD71 is 2.02e+06.

B6: SEQ ID NO 155 (designed binder)
chain: MLPAPKNLVVSRVTEDSARLSWTAPDAAFDSFPITYRERSQYGEAIVLTVPGSERSYDLTGLKPGTEYVVPIEGVKGGRGSKPLSAIFTT
notes: FN3 domain
Take B6: in assay [1], the “hCD71:HSA” value stood at 71. The hCD71 in assay [2] came to 1.84e+06.

B7: SEQ ID NO 153 (designed binder)
chain: MLPAPKNLVVSRVTEDSARLSWTAPDAALDSFRIAYTEYFVGGEAIVLTVPGSERSYDLTGLKPGTEYGVGIYGVKGGAGSSPLSAIFTT
notes: FN3 domain
With B7, the “hCD71:HSA” value in assay [1] is 73. Besides, in assay [2], the hCD71 is 957000.

B8: SEQ ID NO 203 (designed binder)
chain: B7 chain with A35E, T37Y, Y39S, F40Y, V41G, G42H, G69D, A79Y, G80Y, S82R
notes: FN3 domain
Take B8: the “hCD71:HSA” value in assay [1] was determined as 1020. Moreover, in assay [2], the hCD71 worked out at 3.38e+06.

B9: SEQ ID NO 209 (designed binder)
chain: MLPAPKNLVVSRVTEDSARLSWTAPDAAFDSFTIPYIEYVWWGEAIVLTVQGSERSYDLTGLKPGTEYPVTIGGVKGGSRSHPLHAHFTT
notes: FN3 domain
In the case of B9, the “hCD71:HSA” value in assay [1] came to 57. Further, the hCD71 in assay [2] amounted to 790000.

B10: SEQ ID NO 191 (designed binder)
chain: MLPAPENLVVSRVTEDSARLSWTAPDAAFDSFEITYEENWRRGEAIVLTVPGSERSYDLTGPKPGTEYIVIIQGVKGGAESWPLSAIFTT
notes: FN3 domain
As for B10, the “hCD71:HSA” value in assay [1] was determined as 43. For the same molecule, the hCD71 in assay [2] is 1.47e+06.

B11: SEQ ID NO 196 (designed binder)
chain: MLPAPKNLVVSRVTEDSARLSWTAPDAAFDSFNIHYVEWWVLGEAIVLTVPGSERSYDLTGLKPGTEYPVYIYGVKGGPKSIPLSAIFTT
notes: FN3 domain
On to B11, for which the “hCD71:HSA” value in assay [1] was found to be 50. Moreover, the hCD71 in assay [2] was 1.72e+06.

B12: SEQ ID NO 201 (designed binder)
chain: B11 chain with H35D, V37W, W39T, L42I, P69E, Y71I, Y73P, P79T, K80I, I82P
notes: FN3 domain
B12: the “hCD71:HSA” value in assay [1] came out at 106. For the same molecule, the hCD71 in assay [2] amounted to 1.2e+06.

B13: SEQ ID NO 186 (designed binder)
chain: MLPAPKNLVVSRVTEDSARLSWTAPDAAFDSFFIGYLESAEAIVLTVPGSERSYDLTGLKPGTEYLVTIQGVKGGIASDPLSAIFTT
notes: FN3 domain
As for B13, the “hCD71:HSA” value in assay [1] was determined as 1090. Besides, the hCD71 in assay [2] was 2.02e+06.

B14: SEQ ID NO 173 (designed binder)
chain: MLPAPKNLVVSRVTEDSARLSWTAPDAAFDSFTIHYRELYVQAIVLTVPGSERSYDLTGLKPGTEYLVMIPGVKGGPTSVPLSAIFTT
notes: FN3 domain
In the case of B14, the “hCD71:HSA” value in assay [1] amounted to 47. Further, in assay [2], the hCD71 came to 979000.

B15: SEQ ID NO 171 (designed binder)
chain: MLPAPKNLVVSRVTEDSARLSWTAPDAAFDSFAIRYLEWWDVGEAIVLTVPGSERSYDLTGLKPGTEYLVEIKGVKGGKFSYPLSAIFTT
notes: FN3 domain
With B15, in assay [1], the “hCD71:HSA” value was 1960. Further, in assay [2], the hCD71 turned out to be 3.72e+06.

B16: SEQ ID NO 227 (designed binder)
chain: B15 chain with A33R, D41N, V42I, L69H, E71D, K73W, K79Y, F80S
notes: FN3 domain
In the case of B16, the “hCD71:HSA” value in assay [1] amounted to 1680. Moreover, the hCD71 in assay [2] was determined as 3.85e+06.

B17: SEQ ID NO 199 (designed binder)
chain: B15 chain with A33G, L37F, V42L, L59P, L69N, E71T, K73Q, K79F, F80P, Y82M
notes: FN3 domain
On to B17, for which the “hCD71:HSA” value in assay [1] amounted to 101. Besides, in assay [2], the hCD71 came out at 1.46e+06.

B18: SEQ ID NO 208 (designed binder)
chain: MLPAPKNLVVSRVTEDSARLSWTAPDAAFDSFGIVYREPYVGGEAIVLTVPGSERSYDLTGLKPGTEYGVPIPGVKGGYDSGPLSAIFTT
notes: FN3 domain
Take B18: the “hCD71:HSA” value in assay [1] worked out at 49. Further, the hCD71 in assay [2] came to 2.29e+06.

B19: SEQ ID NO 157 (designed binder)
chain: MLPAPKNLVVSRVTEDSARLSWTAPDAAFDSFAIEYYEYVGNGEAIVLTVPGSERSYDLTGLKPGTEYQVGIYGVKGGYYSRPLSAIFTT
notes: FN3 domain
Take B19: the “hCD71:HSA” value in assay [1] is 1080. In addition, in assay [2], the hCD71 was 2.66e+06.

B20: SEQ ID NO 225 (designed binder)
chain: B19 chain with A33K, Y37F, N42Y, Q69Y, G71A, Y79W
notes: FN3 domain
In the case of B20, in assay [1], the “hCD71:HSA” value stood at 210. Also, the hCD71 in assay [2] amounted to 2.96e+06.

B21: SEQ ID NO 206 (designed binder)
chain: B19 chain with A33D, Y37D, Y39L, V40W, G41K, Q69R, G71F, Y80G, R82F
notes: FN3 domain
Turning to B21, the “hCD71:HSA” value in assay [1] stood at 314. In addition, the hCD71 in assay [2] stood at 833000.

B22: SEQ ID NO 218 (designed binder)
chain: B19 chain with A33T, E35L, Y39M, N42E, L62P, Q69W, G71D, Y79G, Y80W
notes: FN3 domain
With B22, in assay [1], the “hCD71:HSA” value was found to be 71. Moreover, the hCD71 in assay [2] worked out at 2.39e+06.

B23: SEQ ID NO 204 (designed binder)
chain: B19 chain with S21P, A33W, E35S, Y39S, N42Y, Q69Y, G71D, Y73S, Y79V, R82L
notes: FN3 domain
In the case of B23, in assay [1], the “hCD71:HSA” value was found to be 113. In addition, in assay [2], the hCD71 amounted to 2.77e+06.

B24: SEQ ID NO 189 (designed binder)
chain: MLPAPKNLVVSRVTEDSARLSWTAPDAAFDSFHEWVYFGEAIVLTVPGSERSYDLTGLKPGTEYFVDIWGVKGGTVSKPLSAIFTT
notes: FN3 domain
Regarding B24, the “hCD71:HSA” value in assay [1] was determined as 29. In addition, the hCD71 in assay [2] came to 1.96e+06.
